Test results taken from the supplement of paper PMC11246515.
± gives the standard deviation of the averaged measurements.

Assay: total protein half-life in vivo (active degradation + dilution); higher = more stable protein
[1] = E. coli NCM3722 delta-clpP delta-lon delta-hslV, growth: N-lim chemostat, doubling time 6 h
[2] = E. coli NCM3722 delta-clpP, growth: N-lim chemostat, doubling time 6 h
[3] = E. coli NCM3722 delta-hslV, growth: N-lim chemostat, doubling time 6 h
[4] = E. coli NCM3722 delta-lon, growth: N-lim chemostat, doubling time 6 h
[5] = E. coli NCM3722 delta-smpB, growth: N-lim chemostat, doubling time 6 h
[6] = wild type E. coli NCM3722, growth: C-lim chemostat, doubling time 6 h
[7] = wild type E. coli NCM3722, growth: C-lim chemostat, doubling time 12 h
[8] = wild type E. coli NCM3722, growth: N-lim chemostat, doubling time 6 h
[9] = wild type E. coli NCM3722, growth: N-lim chemostat, doubling time 12 h
[10] = wild type E. coli NCM3722, growth: P-lim chemostat, doubling time 6 h
[11] = wild type E. coli NCM3722, growth: P-lim chemostat, doubling time 12 h
[12] = wild type E. coli NCM3722, growth: C-lim chemostat, doubling time 3 h

| Sequence | total protein half-life in vivo [1] [h] | total protein half-life in vivo [2] [h] | total protein half-life in vivo [3] [h] | total protein half-life in vivo [4] [h] | total protein half-life in vivo [5] [h] | total protein half-life in vivo [6] [h] | total protein half-life in vivo [7] [h] | total protein half-life in vivo [8] [h] | total protein half-life in vivo [9] [h] | total protein half-life in vivo [10] [h] | total protein half-life in vivo [11] [h] | total protein half-life in vivo [12] [h] |
| --- | --- | --- | --- | --- | --- | --- | --- | --- | --- | --- | --- | --- |
| MYQVVASDLDGTLLSPDHTLSPYAKETLKLLTARGINFVFATGRHHVDVGQIRDNLEIKSYMITSNGARVHDLDGNLIFAHNLDRDIASDLFGVVNDNPDIITNVYRDDEWFMNRHRPEEMRFFKEAVFQYALYEPGLLEPEGVSKVFFTCDSHEQLLPLEQAINARWGDRVNVSFSTLTCLEVMAGGVSKGHALEAVAKKLGYSLKDCIAFGDGMNDAEMLSMAGKGCIMGSAHQRLKDLHPELEVIGTNADDAVPHYLRKLYLS | 3.6 ± 0.88 | 2.94 ± 0.046 | 3.53 ± 0.15 | 3.67 ± 0.27 | 3.31 ± 0.055 | 4.88 ± 0.24 | 8.98 ± 0.53 | 3.39 ± 0.091 | 5.36 ± 0.23 | 4.82 ± 0.18 | 10.2 ± 0.16 | – |
| MSRRLRRTKIVTTLGPATDRDNNLEKVIAAGANVVRMNFSHGSPEDHKMRADKVREIAAKLGRHVAILGDLQGPKIRVSTFKEGKVFLNIGDKFLLDANLGKGEGDKEKVGIDYKGLPADVVPGDILLLDDGRVQLKVLEVQGMKVFTEVTVGGPLSNNKGINKLGGGLSAEALTEKDKADIKTAALIGVDYLAVSFPRCGEDLNYARRLARDAGCDAKIVAKVERAEAVCSQDAMDDIILASDVVMVARGDLGVEIGDPELVGIQKALIRRARQLNRAVITATQMMESMITNPMPTRAEVMDVANAVLDGTDAVMLSAETAAGQYPSETVAAMARVCLGAEKIPSINVSKHRLDVQFDNVEEAIAMSAMYAANHLKGVTAIITMTESGRTALMTSRISSGLPIFAMSRHERTLNLTALYRGVTPVHFDSANDGVAAASEAVNLLRDKGYLMSGDLVIVTQGDVMSTVGSTNTTRILTVE | 5.558 ± 0.04 | 5.39 ± 0.19 | 5.15 ± 0.41 | 5.61 ± 0.28 | 5.32 ± 0.27 | 5.989 ± 0.05 | 11.4 ± 0.78 | 5.4882 ± 0.00083 | 9.898 ± 0.052 | 5.96 ± 0.26 | 13.1 ± 0.68 | 3.02 ± 0.11 |
| MDFPQQLEACVKQANQALSRFIAPLPFQNTPVVETMQYGALLGGKRLRPFLVYATGHMFGVSTNTLDAPAAAVECIHAYSLIHDDLPAMDDDDLRRGLPTCHVKFGEANAILAGDALQTLAFSILSDADMPEVSDRDRISMISELASASGIAGMCGGQALDLDAEGKHVPLDALERIHRHKTGALIRAAVRLGALSAGDKGRRALPVLDKYAESIGLAFQVQDDILDVVGDTATLGKRQGADQQLGKSTYPALLGLEQARKKARDLIDDARQSLKQLAEQSLDTSALEALADYIIQRNK | 4.5 ± 0.14 | 5.14 ± 0.67 | 4.44 ± 0.056 | 4.579 ± 0.024 | 4.63 ± 0.38 | 5.849 ± 0.0072 | 11.5 ± 0.9 | 4.46 ± 0.66 | 6.952 ± 0.057 | 5.75 ± 0.13 | 11.2 ± 0.6 | 3.14 ± 0.08 |
| MIDYEVLRFIWWLLVGVLLIGFAVTDGFDMGVGMLTRFLGRNDTERRIMINSIAPHWDGNQVWLITAGGALFAAWPMVYAAAFSGFYVAMILVLASLFFRPVGFDYRSKIEETRWRNMWDWGIFIGSFVPPLVIGVAFGNLLQGVPFNVDEYLRLYYTGNFFQLLNPFGLLAGVVSVGMIITQGATYLQMRTVGELHLRTRATAQVAALVTLVCFALAGVWVMYGIDGYVVKSTMDHYAASNPLNKEVVREAGAWLVNFNNTPILWAIPALGVVLPLLTILTARMDKAAWAFVFSSLTLACIILTAGIAMFPFVMPSSTMMNASLTMWDATSSQLTLNVMTWVAVVLVPIILLYTAWCYWKMFGRITKEDIERNTHSLY [P0ABK2] | > 8 | – | 6.72 | 5.91 | 5.4 | 6.31 | – | 6.61 | 12.2 ± 1.9 | 6.45 ± 0.17 | 12.9 ± 0.13 | – |
| MKRTKSIRHASFRKNWSARHLTPVALAVATVFMLAGCEKSDETVSLYQNADDCSAANPGKSAECTTAYNNALKEAERTAPKYATREDCVAEFGEGQCQQAPAQAGMAPENQAQAQQSSGSFWMPLMAGYMMGRLMGGGAGFAQQPLFSSKNPASPAYGKYTDATGKNYGAAQPGRTMTVPKTAMAPKPATTTTVTRGGFGESVAKQSTMQRSATGTSSRSMGG [P0ADT2] | 3.82 ± 0.98 | 4.17 ± 0.3 | 3.89 ± 0.12 | 3.69 ± 0.096 | 3.22 ± 0.56 | 3.71 ± 0.29 | 5.86 ± 0.6 | 4.08 ± 0.88 | 7.11 ± 0.26 | 3.45 ± 0.38 | 7.48 ± 0.2 | 1.83 ± 0.4 |
| MSAFKKSLLVAGVAMILSNNVFADEGHGIVKFKGEVISAPCSIKPGDEDLTVNLGEVADTVLKSDQKSLAEPFTIHLQDCMLSQGGTTYSKAKVTFTTANTMTGQSDLLKNTKETEIGGATGVGVRILDSQSGEVTLGTPVVITFNNTNSYQELNFKARMESPSKDATPGNVYAQADYKIAYE | 5.72 | 5.47 | 5.25 | – | 3.96 ± 0.24 | – | – | – | – | – | – | 1.78 |
| MSKTHLTEQKFSDFALHPKVVEALEKKGFHNCTPIQALALPLTLAGRDVAGQAQTGTGKTMAFLTSTFHYLLSHPAIADRKVNQPRALIMAPTRELAVQIHADAEPLAEATGLKLGLAYGGDGYDKQLKVLESGVDILIGTTGRLIDYAKQNHINLGAIQVVVLDEADRMYDLGFIKDIRWLFRRMPPANQRLNMLFSATLSYRVRELAFEQMNNAEYIEVEPEQKTGHRIKEELFYPSNEEKMRLLQTLIEEEWPDRAIIFANTKHRCEEIWGHLAADGHRVGLLTGDVAQKKRLRILDEFTRGDLDILVATDVAARGLHIPAVTHVFNYDLPDDCEDYVHRIGRTGRAGASGHSISLACEEYALNLPAIETYIGHSIPVSKYNPDALMTDLPKPLRLTRPRTGNGPRRTGAPRNRRRSG [P0A8J8] | 6.02 ± 0.1 | 5.9 ± 0.37 | 5.52 ± 0.76 | 5.16 ± 0.18 | 4.94 ± 0.49 | 5.73 ± 0.11 | 9.86 ± 0.77 | 4.71 ± 0.18 | 7.89 ± 0.44 | 5.06 ± 0.39 | 9.85 ± 0.23 | 3.18 ± 0.11 |
